# Source: patent publication US20240368549A1, “ENHANCEMENT OF HEMATOPOIETIC STEM CELL AND HEMATOPOIETIC PROGENITOR CELL EXPANSION WITH AGENTS THAT ACTIVATE TAM RECEPTORS” (CANADIAN BLOOD SERVICES, priority 2021, published 2024)
# “Also recorded” adds a separate entry of the source.
# B1: GAS6: natural ligand of the AXL receptor, growth arrest-specific protein 6, added to cultures at 10 ng/mL (protein, UniProt Q14393 31-678, looked up)
# Growth arrest-specific …: ALLPAREATQFLRPRQRRAFQVFEEAKQGHLERECVEELCSREEAREVFENDPETDYFYPRYLDCINKYGSPYTKNSGFATCVQNLPDQCTPNPCDRKGTQACQDLMGNFFCLCKAGWGGRLCDKDVNECSQENGGCLQICHNKPGSFHCSCHSGFELSSDGRTCQDIDECADSEACGEARCKNLPGSYSCLCDEGFAYSSQEKACRDVDECLQGRCEQVCVNSPGSYTCHCDGRGGLKLSQDMDTCEDILPCVPFSVAKSVKSLYLGRMFSGTPVIRLRFKRLQPTRLVAEFDFRTFDPEGILLFAGGHQDSTWIVLALRAGRLELQLRYNGVGRVTSSGPVINHGMWQTISVEELARNLVIKVNRDAVMKIAVAGDLFQPERGLYHLNLTVGGIPFHEKDLVQPINPRLDGCMRSWNWLNGEDTTIQETVKVNTRMQCFSVTERGSFYPGSGFAFYSLDYMRTPLDVGTESTWEVEVVAHIRPAADTGVLFALWAPDLRAVPLSVALVDYHSTKKLKKQLVVLAVEHTALALMEIKVCDGQEHVVTVSLRDGEATLEVDGTRGQSEVSAAQLQERLAVLERHLRSPVLTFAGGLPDVPVTSAPVTAFYRGCMTLEVNRRLLDLDEAAYKHSDITAHSCPPVEPAAA
# Legend:
# [1] = test system: Umbilical cord blood (UCB) CD34+ cells; test: Expansion of UCB CD34+ cells cultured 14 days with SCACs, GAS6 or inhibitors; type: cell-based, human
# Description: (§1) Umbilical cord blood (UCB) CD34+ cells were cultured in StemSpan™ SFEM (StemCell Technologies) in the presence of different SCACs for 14-days and net fold expansion of TNC, CD34+ cells CD34+CD45RA− cells, and EPCR^High was calculated based on respective population on day-0 (e.g. net TNC day 14/TNC day 0). Control STFL cultures consisted of the same complete media without small molecules. Unless indicated otherwise, all cultures were supplemented with Stem Cell Factor, Flt-3 and Thrombopoietin at 100 ng/ml. All cultures also contained 10 μg/mL low-density lipoprotein (LDL, Stem Ce, Technologies) and 1% penicillin-streptomycin (Gibco). […] The improvement in HSPC expansion provided by the SCACs is exemplified with X2A in FIGS. 2A-2D. […] Culture done with adult CD34+ mobilized peripheral blood stem cells (mPBSC, CAT #70060.2, Stem Cell Technologies) also contained IL-6 (100 ng/ml) as additional cytokine (FIG. 9).
# To investigate the impact of AA2P and/or SCACs on expression of AXL and its activation level, HSPC were culture in STFL with or without AA2P or the indicated SCAC for 14 days (FIG. 4F). In some cultures, the AXL kinase inhibitor Bemcentinib or a neutralizing antibody was added to cultures at day 10, and the impact on HSPC expansion was investigated in indicated cultures at day 14. Proteins level were investigated by western blot analysis or intracellular flowcytometry analysis following common procedures with anti-AXL [Goat IgG anti-AXL (Cat #AF154) or anti-p-AXL (Cat #AF2228) or anti-GAS6 (rabbit IgG, Cat #67202S, Cell Signaling Tech.) and appropriate secondary antibodies, R&D systems). […] AXL is expressed by CD34+CD45RA− HSPCs cultured in both X2A and C6 culture (FIG. 5A). […] This support that, even in the absence of exogenous GAS6 , AA2P alone or in combination with other small molecule (i.e. stem cell agonist such as UM171, SR1 . . . ) is capable of driving enough increased endogenous expression of GAS6 and AXL to support the improved expansion of CD34+CD45RA− HSPCs through para-and/or autocrine activation of AXL on HSPCs.
# (§2) In each case, GAS6 was added to the cultures from days 7 to 14.
# Cell expansion measured after 14 days of culture in STFL culture (FIG. 7A) and in X2A cultures (FIG. 7B). Indeed, as shown therein, the rise in cell growth (TNC) and expansion of HSPC subsets (CD34+ cells, CD34+CD45RA−, EPCRHigh cells) induced by GAS6 can be accomplished by adding GAS6 in cultures at various time point, as early as day 0 and as late as day 10, preferably at day 7.
# [2] = test system: CD34+ mobilized peripheral blood stem cells (mPBSC); test: Expansion of adult mobilized peripheral blood stem cell (mPBSC) cultures; type: cell-based, human; settings: GAS6 10 ng/ml, day 7 to 14; STFL and SCAC cultures
# Description: as §1, §2
# NSG mice = test: Engraftment in NSG mice of X2A-expanded cells with GAS6 or GAS6 neutralizing antibody; type: in vivo
# Description: Mice group were transplanted with the progeny of 750 expanded CD34+ cells after 14 days of culture. The groups were; […]-expanded cells, […]-expanded cells supplemented with GAS6 (10 ng/ml) or a GAS6 neutralizing antibody (GAS6 Ab) from day-10 to day-14. As shown therein, addition of GAS6 to CB HSPC expansion cultures improves the engraftment achieved from the ex vivo expanded HSPCs.
molecule,measurement,setting,value
"Nc1nc(Nc2ccc3c(c2)CC[C@@H](N2CCCC2)CC3)nn1-c1cc2c(nn1)-c1ccccc1CCC2 [Bemcentinib, reference compound]",effect of AXL kinase inhibition on ability of X2A and C6 to expand HSPCs,"[1]; added at day 10, read at day 14, normalized to DMSO",reduction; also recorded: decreased
"Nc1nc(=O)n(-c2cccc(-c3ccccc3)c2)cc1Cl [Bobcat339, reference compound]",effect of TET inhibition on cell growth,"[1]; 30 μM, day-10 to day-14",reduced cell growth
B1,expansion of TNC and HSPC subsets in mPBSC cultures with GAS6,[2],further increased
same,"HSPC expansion with GAS6 in X2A, X2B, STFL or SM6 culture",[1]; FIGS. 5D-5F,improved HSPC expansion
same,"expansion of TNC and HSPC subsets, valproic acid (VPA)-containing cultures","[1]; GAS6 10 ng/mL, days 7 to 14",improved
same,"expansion of the CB HSPC population, GAS6 with single stem cell agonists or agonist cocktails","[1]; GAS6 10 ng/mL, days 7 to 14",strongly increases
same,"expansion of HSPC subsets, control STFL cultures","[1]; GAS6 10 ng/ml, days 7 to 14",improved
same,"expansion of TNC and HSPC subsets, AA2P-containing cultures","[1]; GAS6 10 ng/ml, days 7 to 14",improved
same,"expansion of TNC and HSPC subsets, C6-containing cultures","[1]; GAS6 10 ng/ml, days 7 to 14",improved
same,"expansion of TNC and HSPC subsets, SM6-containing cultures","[1]; GAS6 10 ng/ml, days 7 to 14",improved
same,"expansion of TNC and HSPC subsets, SR1-containing cultures","[1]; GAS6 10 ng/ml, days 7 to 14",improved
same,"expansion of TNC and HSPC subsets, UM171-containing cultures","[1]; GAS6 10 ng/ml, days 7 to 14",improved
same,"expansion of TNC and HSPC subsets, X2A-containing cultures","[1]; GAS6 10 ng/ml, days 7 to 14",improved
same,"expansion of CB TNC and HSPC subsets, GAS6 added at different time point","[1]; added day 0, 4, 7 or 10, STFL with or without X2A, day 14",superior expansion
same,"HSPC expansion, exogenous GAS6 added to SCAC and C6 cultures","[1]; compared to SCACs and C6 alone, 10 ng/mL",further improved HSPC expansion
same,levels of human platelets and human % CD45+ leucocytes,"NSG mice; X2A cultures + GAS6 10 ng/ml, 3-weeks and 16-weeks post-transplant",significantly superior
same,long-term human BM engraftment (% CD45+),"NSG mice; X2A cultures, 18-weeks after transplantation",improved
same,distribution of human lineages downstream HSC,"NSG mice; X2A+ GAS6 group, BM",normal distribution
same,proportion of CD34+ HSPC,"NSG mice; X2A+ GAS6 mice, BM",significantly superior
same,human CFU,NSG mice; X2A+ GAS6 primary transplants,significantly superior
same,net number of human CD34+ BM cells,NSG mice; X2A+ GAS6 primary transplants,significantly superior
same,serial engraftment activity in secondary transplants,"NSG mice; primary X2A+ GAS6 grafts vs X2A grafts, 12-weeks",superior serial engraftment activity
